This note sets out measurements from patent US20250368978A1, “SQUALENE HOPENE CYCLASE VARIANTS FOR PRODUCING SCLAREOLIDE” (INTERNATIONAL FLAVORS & FRAGRANCES INC., priority 2022, published 2025).

The nature of the data set: SHC variant screening reactions: conversion of HFA to sclareolide by freeze-dried whole cells, GC analysis. In kind it is biochemical, Gluconobacter morbifer. As to conditions: for Fold improvement (sclareolide production): based on % peak area, relative to V45L+Q54E+I278T+T326S variant, no metal ions; for Fold improvements (sclareolide production): 20 mg/mL HFA, 50% enzyme loading, relative to initial mutant. On the procedure:
SHC Variant Enzyme Expression. Wild-type and the GmSHC variants of Table 5 were individually cloned into pET28a(+). These DNA constructs were transformed into Lemo21 (DE3) E. coli and plated onto agar plates containing Kanamycin. These were incubated overnight at 37° C. A single bacterial colony was picked and used to inoculate 10 mL LB+Kanamycin in a 50 mL falcon tube. This primary culture was incubated overnight at 37° C. with agitation. These cultures (10 mL) were used to inoculate 1L LB+Kanamycin in a shake flask, which was subsequently incubated at 37° C. at 180 rpm for about 4 hours. Protein expression was then induced with the addition of 0.4 mM IPTG and 0.2 mM L-rhamnose. The incubator temperature was lowered to 25° C. and the cultures further incubated at 180 rpm overnight. The next day, the cultures were centrifuged at 4000 rpm for 10 minutes and the supernatant discarded. Cell pellets were resuspended in 0.1 M Potassium phosphate buffer pH 7.4 and exposed to 1 round of freeze/thawing before lyophilization and then use in the reaction assay.
SHC Variant Screening Reactions. Sodium citrate buffer 0.2 M, pH 5 was prepared and 500 μL of this buffer was added to freeze-dried whole cells of each variant (from 1 L shake flask fermentation of E. coli transformed with desired variant plasmid). The results were obtained with an enzyme loading of 50% (w/w). Subsequently, HFA (20 mg/mL) was added to the buffer/enzyme mix. The reactions were incubated at 25° C. with agitation for 72 hours. To stop the reaction and extract the products, a 2X volume of 3:2, heptane: isopropanol was added to each reaction. These were then incubated at 37° C. for 30 minutes with agitation to mix thoroughly. The reactions were centrifuged for 10 minutes at 4000 rpm to pellet any cellular material. The upper organic layer was then removed and placed in a clean gas chromatography (GC) vial.
GC Analysis Method. A GC analytical method was used to detect each of the starting materials and products used in the screening reactions. Due to the volume of samples generated, a fast method was developed with a run time of only 4.5 minutes.
No metal ions were included in the reaction.
Further analysis was conducted to identify one or more optimal SHC enzymes. In particular, substrate loading was increased to 20 mg/mL and incubation with a reduced enzyme loading (50%).

Setting [1] is: 10 mg/mL HFA, 100% enzyme loading.

B1: WT: wild-type squalene hopene cyclase from Gluconobacter morbifer, SEQ ID NO: 1 / SEQ ID NO: 2 (protein)
chain: MSPADISTKSSSFQRLDNMLPEAVSSACDWLIDQQKPDGHWVGPVESNACMEAQWCLALWFLGQEDHPLRPRLAQALLEMQREDGSWGIYVGADHGDINTTVEAYAALRSMGYAADMPIMAKSAAWIQQKGGLRNVRVFTRYWLALIGEWPWDKTPNLPPEIIWLPDNFIFSIYNFAQWARATMMPLTILSARRPSRPLLPENRLDGLFPEGRENFDYELPVKGEEDLWGRFFRAADKGLHSLQSFPVRRFVPREAAIRHVIEWIIRHQDADGGWGGIQPPWIYGLMALSVEGYPLHHPVLAKAMDALNDPGWRRDKGDASWIQATNSPVWDTMLAVLALHDAGAEDRYSPQMDKAIGWLLDRQVRVKGDWSIKLPDTEPGGWAFEYANDKYPDTDDTAVALIALAGCRHRPEWRERDIEGAISRGVNWLLAMQSSSGGWGAFDKDNNRSILTKIPFCDFGEALDPPSVDVTAHVLEAFGLLGISRNHPSVQKALAYIRSEQERNGAWFGRWGVNYVYGTGAVLPALAAIGEDMTQPYIVRACDWLMSVQQENGGWGESCASYMDINAVGHGVATASQTAWALIGLLAAKRPKDREAIARGCQFLIERQEDGSWTEEEYTGTGFPGYGVGQAIKLDDPSLPDRLLQGAELSRAFMLRYDLYRQYFPVMALSRARRMMKEDASAAA
modifications: Gluconobacter morbifer
On to B1, for which, under setting [1], the “conversion of HFA to sclareolide” value was “did not show any conversion”.

B2: V45L + Q54E + V222K + I278T + T326S: GmSHC variant with these substitutions relative to SEQ ID NO: 2 (protein)
chain: MSPADISTKSSSFQRLDNMLPEAVSSACDWLIDQQKPDGHWVGPLESNACMEAEWCLALWFLGQEDHPLRPRLAQALLEMQREDGSWGIYVGADHGDINTTVEAYAALRSMGYAADMPIMAKSAAWIQQKGGLRNVRVFTRYWLALIGEWPWDKTPNLPPEIIWLPDNFIFSIYNFAQWARATMMPLTILSARRPSRPLLPENRLDGLFPEGRENFDYELPKKGEEDLWGRFFRAADKGLHSLQSFPVRRFVPREAAIRHVIEWIIRHQDADGGWGGTQPPWIYGLMALSVEGYPLHHPVLAKAMDALNDPGWRRDKGDASWIQASNSPVWDTMLAVLALHDAGAEDRYSPQMDKAIGWLLDRQVRVKGDWSIKLPDTEPGGWAFEYANDKYPDTDDTAVALIALAGCRHRPEWRERDIEGAISRGVNWLLAMQSSSGGWGAFDKDNNRSILTKIPFCDFGEALDPPSVDVTAHVLEAFGLLGISRNHPSVQKALAYIRSEQERNGAWFGRWGVNYVYGTGAVLPALAAIGEDMTQPYIVRACDWLMSVQQENGGWGESCASYMDINAVGHGVATASQTAWALIGLLAAKRPKDREAIARGCQFLIERQEDGSWTEEEYTGTGFPGYGVGQAIKLDDPSLPDRLLQGAELSRAFMLRYDLYRQYFPVMALSRARRMMKEDASAAA
modifications: Gluconobacter morbifer
In the case of B2, the “Fold improvements (sclareolide production)” value (“Fold improvements” for short) came out at 12 Fold. For the same molecule, the “Fold improvement (sclareolide production)” value under setting [1] is 5.4 Fold.

B3: V45L + Q54E + I278T + T326S: GmSHC variant, first mutant enzyme which showed formation of sclareolide (protein)
chain: MSPADISTKSSSFQRLDNMLPEAVSSACDWLIDQQKPDGHWVGPLESNACMEAEWCLALWFLGQEDHPLRPRLAQALLEMQREDGSWGIYVGADHGDINTTVEAYAALRSMGYAADMPIMAKSAAWIQQKGGLRNVRVFTRYWLALIGEWPWDKTPNLPPEIIWLPDNFIFSIYNFAQWARATMMPLTILSARRPSRPLLPENRLDGLFPEGRENFDYELPVKGEEDLWGRFFRAADKGLHSLQSFPVRRFVPREAAIRHVIEWIIRHQDADGGWGGTQPPWIYGLMALSVEGYPLHHPVLAKAMDALNDPGWRRDKGDASWIQASNSPVWDTMLAVLALHDAGAEDRYSPQMDKAIGWLLDRQVRVKGDWSIKLPDTEPGGWAFEYANDKYPDTDDTAVALIALAGCRHRPEWRERDIEGAISRGVNWLLAMQSSSGGWGAFDKDNNRSILTKIPFCDFGEALDPPSVDVTAHVLEAFGLLGISRNHPSVQKALAYIRSEQERNGAWFGRWGVNYVYGTGAVLPALAAIGEDMTQPYIVRACDWLMSVQQENGGWGESCASYMDINAVGHGVATASQTAWALIGLLAAKRPKDREAIARGCQFLIERQEDGSWTEEEYTGTGFPGYGVGQAIKLDDPSLPDRLLQGAELSRAFMLRYDLYRQYFPVMALSRARRMMKEDASAAA
Regarding B3, the “Fold improvements” value was found to be 0 Fold. For the same molecule, the “Fold improvement (sclareolide production)” value under setting [1] was -0- Fold.

B4: V45L + Q54E + V222K + I278S + T326S: GmSHC variant with these substitutions relative to SEQ ID NO: 2 (protein)
chain: MSPADISTKSSSFQRLDNMLPEAVSSACDWLIDQQKPDGHWVGPLESNACMEAEWCLALWFLGQEDHPLRPRLAQALLEMQREDGSWGIYVGADHGDINTTVEAYAALRSMGYAADMPIMAKSAAWIQQKGGLRNVRVFTRYWLALIGEWPWDKTPNLPPEIIWLPDNFIFSIYNFAQWARATMMPLTILSARRPSRPLLPENRLDGLFPEGRENFDYELPKKGEEDLWGRFFRAADKGLHSLQSFPVRRFVPREAAIRHVIEWIIRHQDADGGWGGSQPPWIYGLMALSVEGYPLHHPVLAKAMDALNDPGWRRDKGDASWIQASNSPVWDTMLAVLALHDAGAEDRYSPQMDKAIGWLLDRQVRVKGDWSIKLPDTEPGGWAFEYANDKYPDTDDTAVALIALAGCRHRPEWRERDIEGAISRGVNWLLAMQSSSGGWGAFDKDNNRSILTKIPFCDFGEALDPPSVDVTAHVLEAFGLLGISRNHPSVQKALAYIRSEQERNGAWFGRWGVNYVYGTGAVLPALAAIGEDMTQPYIVRACDWLMSVQQENGGWGESCASYMDINAVGHGVATASQTAWALIGLLAAKRPKDREAIARGCQFLIERQEDGSWTEEEYTGTGFPGYGVGQAIKLDDPSLPDRLLQGAELSRAFMLRYDLYRQYFPVMALSRARRMMKEDASAAA
modifications: Gluconobacter morbifer
B4: the “Fold improvements” value is reported as 28.4 Fold. Moreover, the “Fold improvement (sclareolide production)” value under setting [1] was determined as 7.4 Fold.

B5: V45L + Q54E + V222R + I278T + T326S: GmSHC variant with these substitutions relative to SEQ ID NO: 2 (protein)
chain: MSPADISTKSSSFQRLDNMLPEAVSSACDWLIDQQKPDGHWVGPLESNACMEAEWCLALWFLGQEDHPLRPRLAQALLEMQREDGSWGIYVGADHGDINTTVEAYAALRSMGYAADMPIMAKSAAWIQQKGGLRNVRVFTRYWLALIGEWPWDKTPNLPPEIIWLPDNFIFSIYNFAQWARATMMPLTILSARRPSRPLLPENRLDGLFPEGRENFDYELPRKGEEDLWGRFFRAADKGLHSLQSFPVRRFVPREAAIRHVIEWIIRHQDADGGWGGTQPPWIYGLMALSVEGYPLHHPVLAKAMDALNDPGWRRDKGDASWIQASNSPVWDTMLAVLALHDAGAEDRYSPQMDKAIGWLLDRQVRVKGDWSIKLPDTEPGGWAFEYANDKYPDTDDTAVALIALAGCRHRPEWRERDIEGAISRGVNWLLAMQSSSGGWGAFDKDNNRSILTKIPFCDFGEALDPPSVDVTAHVLEAFGLLGISRNHPSVQKALAYIRSEQERNGAWFGRWGVNYVYGTGAVLPALAAIGEDMTQPYIVRACDWLMSVQQENGGWGESCASYMDINAVGHGVATASQTAWALIGLLAAKRPKDREAIARGCQFLIERQEDGSWTEEEYTGTGFPGYGVGQAIKLDDPSLPDRLLQGAELSRAFMLRYDLYRQYFPVMALSRARRMMKEDASAAA
modifications: Gluconobacter morbifer
Turning to B5, the “Fold improvements” value is reported as 27 Fold. The “Fold improvement (sclareolide production)” value under setting [1] amounted to 4.2 Fold.

B6: V45L + Q54E + M184T + R249R + I278T + T326S: GmSHC variant with these substitutions relative to SEQ ID NO: 2 (protein)
chain: MSPADISTKSSSFQRLDNMLPEAVSSACDWLIDQQKPDGHWVGPLESNACMEAEWCLALWFLGQEDHPLRPRLAQALLEMQREDGSWGIYVGADHGDINTTVEAYAALRSMGYAADMPIMAKSAAWIQQKGGLRNVRVFTRYWLALIGEWPWDKTPNLPPEIIWLPDNFIFSIYNFAQWARATTMPLTILSARRPSRPLLPENRLDGLFPEGRENFDYELPVKGEEDLWGRFFRAADKGLHSLQSFPVRRFVPREAAIRHVIEWIIRHQDADGGWGGTQPPWIYGLMALSVEGYPLHHPVLAKAMDALNDPGWRRDKGDASWIQASNSPVWDTMLAVLALHDAGAEDRYSPQMDKAIGWLLDRQVRVKGDWSIKLPDTEPGGWAFEYANDKYPDTDDTAVALIALAGCRHRPEWRERDIEGAISRGVNWLLAMQSSSGGWGAFDKDNNRSILTKIPFCDFGEALDPPSVDVTAHVLEAFGLLGISRNHPSVQKALAYIRSEQERNGAWFGRWGVNYVYGTGAVLPALAAIGEDMTQPYIVRACDWLMSVQQENGGWGESCASYMDINAVGHGVATASQTAWALIGLLAAKRPKDREAIARGCQFLIERQEDGSWTEEEYTGTGFPGYGVGQAIKLDDPSLPDRLLQGAELSRAFMLRYDLYRQYFPVMALSRARRMMKEDASAAA
modifications: Gluconobacter morbifer
As to B6, the “Fold improvement (sclareolide production)” value under setting [1] stood at 3.3 Fold.
